Experiments:
RAS = RAS activity assay (Ras Activation ELISA) in cell lysates; type: cell-based, human; conditions: 25 nM, 48 h
Method: Ras activity in cell lysates was measured using a Ras Activation ELISA Kit from Cell Biolabs. Briefly, approximately 5×10^6 cells were mixed with 0.5 ml lysis buffer. Cell lysates were cleared by centrifugation at 14,000 g for 10 min at 4° C., and 250 μl per sample was mixed with 10 μl of 0.5 M EDTA with or without 5 μl of either 100× GTPγS or 100× GDP, which was incubated at 37° C. for 30 min with agitation and then mixed with 33 μl of 1 M MgCl2. The mixture after appropriate dilution was transferred at 100 μl per sample to a well in a 96-well plate immobilized with RAF-1 RAS-binding domain and incubated for 1 h at RT. After washing the wells 5 times with wash buffer, 100 μl of an anti-pan-RAS antibody was added to each well and incubated for 1 h at RT. After another round of wash, 100 μl of a secondary antibody-HRP conjugate was added to each well and incubated for 1 h at RT. After yet another round of wash, 100 μl of substrate solution was added to each well and incubated at RT for 20 min, followed by addition of 100 μl of stop solution to each well. Absorbance at 450 nm in each well was recorded by a Synergy 2 Multi-Mode Microplate Reader.

EGFR and HER2 = assay: Western blotting of tumor homogenates: EGFR and HER2; type: in vivo, mouse; conditions: 24 h after the final dose
Method: To prepare whole cell lysates, cells were washed with PBS twice, mixed with 1× cell lysis buffer from Cell Signaling Technology supplemented with 2 mM PMSF and a protease inhibitor cocktail from Roche Applied Science, placed on ice for 10 min, sonicated at 0-4° C. to enhance cell lysis using a Branson Model 450 sonifier, and finally centrifuged at 13,000 g for 10 min at 4° C., and the supernatant fraction is collected as whole cell lysate. […]
Protein concentrations in all samples were measured using the BCA Assay Kit. […] Proteins were transferred to polyvinylidene fluoride membrane, probed with specific antibodies, and detected using either Luminata Classico (Millipore) or Luminata Cresendo (Millipore). […] The beads were washed three times with IP buffer, suspended in 2× SDS loading buffer, boiled for 5 min, and analyzed by Western blotting.
SCID mice (C.B.17 SCID) were bred by the Laboratory Animal Shared Resource at Roswell Park Comprehensive Cancer Center. […] Subcutaneous tumor volume was measured using length ×width^2÷2. Tumor volume was measured three times each week. Orthotopic tumor growth was monitored by bioluminescence weekly. Mice were given D-luciferin (150 mg/kg) by ip and anesthetized with isoflurane, and tumor burden was measured by bioluminescence using the IVIS Spectrum In Vivo Imaging System (PerkinElmer). Drug treatment was started when significant tumor growth was detected. […]

[1] = Measurement of plasma PEPD^G278D concentration by ELISA; type: in vivo, mouse; conditions: mice bearing SW48 tumors and HCT116 tumors; 24 h after final PEPD^G278D treatment (4 mg/kg ip with EP)
Method: Plasma PEPD^G278D concentration was measured by ELISA as previously reported. Briefly, 96-well ELISA plates were coated with 100 μl/well of a PEPD antibody (mouse monoclonal, against amino acids 101-305, sc-390042) overnight at 4° C. The plates were then washed three times with PBST and incubated with 200 μl/well of a blocking buffer for at least 2 h at RT. The plates were washed again with PBST and incubated with 100 μl/well of a PEPD standard or a sample, which were appropriately diluted, for 2 h at RT. After another round of wash with PBST, each well was incubated with 100 μl of a detection antibody (an anti-PEPD rabbit polyclonal, ab-86507) for 2 h at RT. After another round of wash with PBST, 100 μl of a secondary antibody-HRP conjugate was added to each well, followed by 1 h incubation at RT. The plates were washed again with PBST three times, and each well was then incubated with 100 μl of a HRP substrate solution. After adequate color development, 100 μl of stop solution was added to each well, and absorbance at 450 nm was recorded by a Synergy 2 Multi-Mode Microplate Reader. Purified recombinant PEPD^G278D was used as a standard.

B1: PEPD^G278D: recombinant and enzymatically inactive mutant of human peptidase D (PEPD), with replacement of glycine 278 by aspartic acid (protein)
chain: AAATGPSFWLGNETLKVPLALFALNRQRLCERLRKNPAVQAGSIVVLQGGEETQRYCTDTGVLFLQESFFHWAFGVTEPGCYGVIDVDTGKSTLFVPRLPASHATWMGKIHSKEHFKEKYAVDDVQYVDEIASVLTSQKPSVLLTLRGVNTDSGSVCREASFDGISKFEVNNTILHPEIVESRVFKTDMELEVLRYTNKISSEAHREVMKAVKVGMKEYGLESLFEHYCYSRGGMRHSSYTCICGSGENSAVLHYGHAGAPNDRTIQNGDMCLFDMDGEYYSVASDITCSFPRNGKFTADQKAVYEAVLLSSRAVMGAMKPGDWWPDIDRLADRIHLEELAHMGILSGSVDAMVQAHLGAVFMPHGLGHFLGIDVHDVGGYPEGVERIDEPGLRSLRTARHLQPGMVLTVEPGIYFIDHLLDEALADPARASFLNREVLQRFRGFGGVRIEEDVVVIDSGIELLTCVPRTVEEIEACMAGCDKAFTPFSGPK
modifications: left off: small tags and cut ends
inhibition of RAS activity (RAS; HCT116 cells): 73%
inhibition of RAS activity (RAS; HT29 cells): 75%
inhibition of RAS activity (RAS; SW48 cells): 75%
effect on EGFR, HER2 and ERK in tumors (EGFR and HER2; HCT116 and HT29 tumors): neither PEPD^G278D nor cetuximab had any effect
expression and phosphorylation of EGFR and HER2 in tumors (EGFR and HER2; SW48 tumors): decreased the expression and phosphorylation of both EGFR and HER2
plasma concentrations of PEPD^G278D [1]: high and similar
